Target: PICK1 PDZ domain with an additional C-terminal fusion (NKLQQSAV), oxidized, bCPA-treated dimer (UniProt Q9NRD5)
Assay: crystal structure; dimeric bCPA-treated PICK1 PDZ with compound 1o; space group P3_(2), one disulfide bridged dimer per asymmetric unit; 1.69 Å

stoichiometry N: 2
Substance: PICK1 PDZ domain with an additional C-terminal fusion (NKLQQSAV), oxidized, bCPA-treated dimer (from UniProt Q9NRD5 1-105) (domain or fragment)
